Measured values: US20210060157A1 (published 2021)
Changes are numbered by the printed parent chain. Several values for one entry are separate records, joined by “and”; a condition that tells them apart may be missing. Equal entries are not always repeated. Each block holds one binder with its values, some of them ahead of it.

Key:
[1] = molecular target: T1, human complement component C6 (human, UniProt P13671 22-934); assay: SPR, Biacore 2000, C6 amine-coupled to CM5 chip, antibody as analyte, 25 C, 1:1 model
T1 construct: Protein was purified from human serum (113 kDa); biotinylated in the Fab ELISAs; also called human C6; hC6
T1 sequence (P13671 22-934 limits assumed): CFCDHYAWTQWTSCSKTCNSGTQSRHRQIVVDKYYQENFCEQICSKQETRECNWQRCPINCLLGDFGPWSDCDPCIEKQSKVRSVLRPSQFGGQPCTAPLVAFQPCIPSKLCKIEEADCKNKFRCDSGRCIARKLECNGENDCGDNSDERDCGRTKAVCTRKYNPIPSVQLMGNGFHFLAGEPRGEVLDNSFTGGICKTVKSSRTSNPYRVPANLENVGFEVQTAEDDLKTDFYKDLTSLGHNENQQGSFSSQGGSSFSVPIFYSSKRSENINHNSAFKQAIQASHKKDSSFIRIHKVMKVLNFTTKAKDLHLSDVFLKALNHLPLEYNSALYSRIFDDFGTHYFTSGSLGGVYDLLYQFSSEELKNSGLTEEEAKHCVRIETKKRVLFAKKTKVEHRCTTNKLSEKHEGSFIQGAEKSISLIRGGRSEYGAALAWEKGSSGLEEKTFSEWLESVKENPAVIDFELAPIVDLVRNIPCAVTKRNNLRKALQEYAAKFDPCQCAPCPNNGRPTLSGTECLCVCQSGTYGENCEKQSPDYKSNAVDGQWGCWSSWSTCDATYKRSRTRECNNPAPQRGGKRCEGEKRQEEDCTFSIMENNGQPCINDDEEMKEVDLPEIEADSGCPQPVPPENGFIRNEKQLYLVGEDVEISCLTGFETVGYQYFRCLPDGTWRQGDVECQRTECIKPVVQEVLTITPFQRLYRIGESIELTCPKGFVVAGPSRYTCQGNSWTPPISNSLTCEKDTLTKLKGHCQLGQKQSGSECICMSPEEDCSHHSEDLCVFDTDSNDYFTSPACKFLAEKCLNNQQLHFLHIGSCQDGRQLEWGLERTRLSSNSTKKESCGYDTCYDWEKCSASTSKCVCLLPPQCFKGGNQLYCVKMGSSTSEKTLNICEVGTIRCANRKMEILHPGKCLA
Procedure: (§1) Binding Kinetics: To investigate kinetics of 7E5 binding to C6, surface plasmon resonance measurement in a BIACORE 2000 (GE Healthcare) equipped with a research-grade CM5 sensor chip was used. The ligand (C6, 113 kDa) was immobilized using amine-coupling chemistry. The surface of flow cell two was activated for 7 minutes with a 1:1 mixture of 0.1 M NHS (N-hydroxysuccinimide) and 0.4 M EDC (3-(N,N-dimethylamino) propyl-N-ethylcarbodiimide) at a flow rate of 5 μl/min. The ligand at a concentration of 10 μg/ml in 10 mM sodium acetate, pH 5.0, was immobilized at a density of 955 RU. The surface was blocked with a 7 minute injection of 1 M ethanolamine, pH 8.0.
(§2) To collect kinetic binding data, the analytes (anti C6-antibodies, 150 kDa) in 10 mM HEPES, 150 mM NaCl, 0.005% P20, pH 7.4, were injected over the two flow cells at a flow rate of 30 μl/min and at a temperature of 25° C. The injected concentrations differ per antibody. Data were collected at a rate of 1 Hz. The complex was allowed to associate and dissociate for 90 and 300 seconds, respectively. The surfaces were regenerated with a 10 second injection of 0.1 M HCl. Duplicate injections (in random order) of each sample and a buffer blank were flowed over the two surfaces.
(§3) The data were fit to a simple 1:1 interaction model using the global data analysis option available within BiaEvaluation 4.1 software.

[2] = molecular target: T1, human complement component C6; assay: SPR, Biacore 2000
Procedure: as §1, §2, §3

peptide 420 = molecular target: T2, peptide 420 (human); assay: alanine scan on selected peptides (peptide array)
T2 peptide: DGRQLEWGLERTRLSS
Procedure: Subsequently, an alanine scan (in which alanine is used to replace amino acids one by one) on selected peptides was performed to help pinpoint the epitope.

[3] = molecular target: T1, human complement component C6; assay: SPR, Biacore 2000, derived from kd
Procedure: as §1, §2, §3

peptide 418 = molecular target: T3, peptide 418 (human); assay: peptide array of overlapping 16mer C6 peptides on a membrane
T3 construct: Synthesized and spotted on a membrane (peptide array)
T3 peptide: GSCQDGRQLEWGLERT
Procedure: Peptide arrays were used to determine the epitope of 7E5 in human C6. Consecutive overlapping 16mer peptides (peptides 16 amino acids long, overlapping 14 amino acids) from the C6 protein sequence were synthesized and spotted in a grid pattern on a membrane. The membrane was then incubated with 7E5 antibody to detect which peptide was recognized by the antibody.

[4] = molecular target: T1, human complement component C6; assay: ELISA on biotinylated hC6 and Biacore 3000 off-rate screening of periplasmic extracts on immobilized hC6

B2: humanized 7E5 Fab 7E11 (Fab, V domains shown)
VH: EVQLVESGGGLVQPGGSLRLSCVASGFTFSDYYMAWVRQAPGKGLEWVATINYDGSSTYYRESVKGRFTISRDNAKNTLYLQMDSLRAEDTAVYYCARPSTEALFAYWGQGTLVTVSS
VL: DIVLTQTPLSLSATPGQSVSISCRSSQSLLNDVGNTYLYWYLQRPGQSPQLLIYLVSDLGSGVPDRFSGSGSGTDFTLKISRVEAEDVGVYYCMQASHAPYTFGAGTNLEIK
binding result [4]: binds

B3: humanized 7E5 Fab 7F06 (Fab, V domains shown)
VH: B2 VH with R19K, V23A, S30R, A40G, T78S, Q110H
VL: B2 VL with I2V, S10T, A13V, S18P, R44K, D65N, N108R, I111L
notes: also called 7F6
binding result [4]: binds

B4: humanized 7E5 Fab 7F11 (Fab, V domains shown)
VH: B2 VH with G8D, R19K, V23A, A40G, G42T, D84N, A97S, Q110H
VL: B2 VL with I2V, L9S, S10T, A13V, S18P, R44K, D65N, R82G, N108R
binding result [4]: binds

B5: humanized 7E5 Fab 8G09 (Fab, V domains shown)
VH: B2 VH with G8D, N77R
VL: B2 VL with S10T, A13V, R44K, D65N, N108R
binding result [4]: binds

Now from value to binder:

Kd [1]: 0.253 nM
koff [1]: 4.27e-06 s⁻¹
kon [1]: 16900 M⁻¹ s⁻¹
half-life of the 7E5-C6 complex [2]: > 40 h
binding result (peptide 420): binds
t1/2 (complex half life) [3]: 45 h and 45.1 h
binding result (peptide 418): binds
B1: rat anti-human C6 monoclonal antibody 7E5 (antibody, V domains shown)
VH: B2 VH with G8D, R19K, T28S, A40G, G42T, N77R, A88S, V93T, A97S, Q110H
VL: B2 VL with I2V, L9S, S10T, P15I, D65N, R82G, V88L, V90I, I111L
notes: Whole antibody (150 kDa analyte in SPR) from a rat hybridoma; also called 7E5 mAb; supernatant #11

binding result [4]: binds
B6: humanized 7E5 Fab 7E12 (Fab, V domains shown)
VH: B2 VH with G8D, R19K, V23A, A40G, D84N, V93T, Q110H
VL: B2 VL with I2V, L9S, S10T, A13V, S18P, V19A, R44K, D65N, V90I, A105Q

binding result [4]: binds
B7: humanized 7E5 Fab 8F07 (Fab, V domains shown)
VH: B2 VH with V23A, T28S, A40G, D84N, A88S, V93T, Q110H
VL: B2 VL with I2V, S10T, A13V, R44K, R82G, N108K
notes: also called 8F7

binding result [4]: binds
B8: humanized 7E5 Fab 7F02 (Fab, V domains shown)
VH: B2 VH with R19K, V23A, A40G, T78S, D84N, A88S, Q110H
VL: B2 VL with I2V, L4M, L9S, S10T, V19A, R44K, D65N, V90I, N108R, I111L
notes: also called 7F2
